Measurements taken from the Human Domainome abundance scans (Beltran et al. 2025).
± gives the uncertainty stated by the source.

B1: POU domain, class 3, transcription factor 4, residues 280 to 335; numbered along this chain, P49335 (parent)
chain: KKRTSIEVSVKGVLETHFLKCPKPAAQEISSLADSLQLEKEVVRVWFCNRRQKEKR

Variants of: B1
Experiment: abundance fitness (aPCA) (normalised: wild type 0, dead -1); higher = more abundant; growth selection in yeast, the domain comes from the species named
Conditions: Homo sapiens

Q: For KKRTSIEVSVKGVLETHFLKCPKPAAQEISSLADSLQLEKEVVRVWFCNRNQKEKR [R51N], which abundance fitness is on record?
A: -0.628 ± 0.37

Q: With KKRTSIEVSVKGVLETHFLKCPKPAAQEISSLADSLQLEKEVVRVWFCNRQQKEKR [R51Q] as the variant, how does the abundance fitness read?
A: -0.237 ± 0.18

Q: With KKRTSIEVSVKGVLETHFLKCPKPAAQEISSLADSLQLEKEVVRVWFCNRWQKEKR [R51W] as the variant, how does the abundance fitness read?
A: -0.221 ± 0.17

Q: With KKRTSIEVSVKGVLETHFLKCPKPAAQEISSLADSLQLEKEVVRVWFCNRSQKEKR [R51S] as the variant, how does the abundance fitness read?
A: -0.549 ± 0.18

Q: Which abundance fitness does the source give for KKRTSIEVSVKGVLETHFLKCPKPAAQEISSLADSLQLEKEVVRVWFCNRCQKEKR [R51C] here?
A: -0.506 ± 0.24

Q: For KKRTSIEVSVKGVLETHFLKCPKPAAQEISSLADSLQLEKEVVRVWFCNRGQKEKR [R51G], which abundance fitness is on record?
A: -0.804 ± 0.14

Q: With KKRTSIEVSVKGVLETHFLKCPKPAAQEISSLADSLQLEKEVVRVWFCNRYQKEKR [R51Y] as the variant, how does the abundance fitness read?
A: -0.193 ± 0.47

Q: With KKRTSIEVSVKGVLETHFLKCPKPAAQEISSLADSLQLEKEVVRVWFCNRPQKEKR [R51P] as the variant, how does the abundance fitness read?
A: -0.834 ± 0.25

Q: With KKRTSIEVSVKGVLETHFLKCPKPAAQEISSLADSLQLEKEVVRVWFCNRVQKEKR [R51V] as the variant, how does the abundance fitness read?
A: -0.424 ± 0.13

Q: With KKRTSIEVSVKGVLETHFLKCPKPAAQEISSLADSLQLEKEVVRVWFPNRRQKEKR [C48P] as the variant, how does the abundance fitness read?
A: -0.762 ± 0.21

Q: For KKRTSIEVSVKGVLETHFLKCPKPAAQEISSLADSLQLEKEVVRVWFVNRRQKEKR [C48V], which abundance fitness is on record?
A: 0.058 ± 0.15

Q: For KKRTSIEVSVKGVLETHFLKCPKPAAQEISSLADSLQLEKEVVRVWFSNRRQKEKR [C48S], which abundance fitness is on record?
A: 0.078 ± 0.13

Q: Which abundance fitness does the source give for KKRTSIEVSVKGVLETHFLKCPKPAAQEISSLADSLQLEKEVVRVWFANRRQKEKR [C48A] here?
A: -0.051 ± 0.18

Q: For KKRTSIEVSVKGVLETHFLKCPKPAAQEISSLADSLQLEKEVVRVWFTNRRQKEKR [C48T], which abundance fitness is on record?
A: -0.187 ± 0.21

Q: For KKRTSIEVSVKGVLETHFLKCPKPAAQEISSLADSLQLEKEVVRVWFQNRRQKEKR [C48Q], which abundance fitness is on record?
A: 0.154 ± 0.16

Q: With KKRTSIEVSVKGVLETHFLKCPKPAAQEISSLADSLQLEKEVVRVWFINRRQKEKR [C48I] as the variant, how does the abundance fitness read?
A: 0.155 ± 0.2

Q: With KKRTSIEVSVKGVLETHFLKCPKPAAQEISSLADSLQLEKEVVRVWFNNRRQKEKR [C48N] as the variant, how does the abundance fitness read?
A: -0.113 ± 0.22

Q: For KKRTSIEVSVKGVLETHFLKCPKPAAQEISSLADSLQLEKEVVRVWFMNRRQKEKR [C48M], which abundance fitness is on record?
A: 0.022 ± 0.19

Q: With KKRTSIEVSVKGVLETHFLKCPKPAAQEISSLADSLQLEKEVVRVWFGNRRQKEKR [C48G] as the variant, how does the abundance fitness read?
A: -0.526 ± 0.14

Q: Which abundance fitness does the source give for KKRTSIEVSVKGVLETHFLKCPKPAAQEISSLADSLQLEKEVVRVWFWNRRQKEKR [C48W] here?
A: -0.073 ± 0.16

Q: Which abundance fitness does the source give for KKRTSIEVSVKGVLETHFLKCPKPAAQEISSLADSLQLEKEVVRVWFKNRRQKEKR [C48K] here?
A: 0.282 ± 0.24

Q: With KKRTSIEVSVKGVLETHFLKCPKPAAQEISSLADSLQLEKEVVRVWFENRRQKEKR [C48E] as the variant, how does the abundance fitness read?
A: 0.549 ± 0.19

Q: Which abundance fitness does the source give for KKRTSIEVSVKGVLETHFLKCPKPAAQEISSLADSLQLEKEVVRVWFHNRRQKEKR [C48H] here?
A: 0.068 ± 0.28

Q: With KKRTSIEVSVKGVLETHFLKCPKPAAQEISSLADSLQLEKEVVRVWFDNRRQKEKR [C48D] as the variant, how does the abundance fitness read?
A: 0.023 ± 0.25

Q: With KKRTSIEVSVKGVLETHFLKCPKPAAQEISSLADSLQLEKEVVRVWFRNRRQKEKR [C48R] as the variant, how does the abundance fitness read?
A: 0.056 ± 0.12

Q: For KKRTSIEVSVKGVLETHFLKCPKPAAQEISSLADSLQLEKEVVRVWFCNRRRKEKR [Q52R], which abundance fitness is on record?
A: -0.317 ± 0.13

Q: For KKRTSIEVSVKGVLETHFLKCPKPAAQEISSLADSLQLEKEVVRVWFCNRRDKEKR [Q52D], which abundance fitness is on record?
A: 0.231 ± 0.2

Q: For KKRTSIEVSVKGVLETHFLKCPKPAAQEISSLADSLQLEKEVVRVWFCNRRHKEKR [Q52H], which abundance fitness is on record?
A: -0.069 ± 0.23

Q: With KKRTSIEVSVKGVLETHFLKCPKPAAQEISSLADSLQLEKEVVRVWFCNRRNKEKR [Q52N] as the variant, how does the abundance fitness read?
A: 0.273 ± 0.27

Q: Which abundance fitness does the source give for KKRTSIEVSVKGVLETHFLKCPKPAAQEISSLADSLQLEKEVVRVWFCNRRMKEKR [Q52M] here?
A: 0.071 ± 0.2

Q: Which abundance fitness does the source give for KKRTSIEVSVKGVLETHFLKCPKPAAQEISSLADSLQLEKEVVRVWFCNRRPKEKR [Q52P] here?
A: -0.741 ± 0.22

Q: Which abundance fitness does the source give for KKRTSIEVSVKGVLETHFLKCPKPAAQEISSLADSLQLEKEVVRVWFCNRRVKEKR [Q52V] here?
A: -0.378 ± 0.14

Q: With KKRTSIEVSVKGVLETHFLKCPKPAAQEISSLADSLQLEKEVVRVWFCNRRIKEKR [Q52I] as the variant, how does the abundance fitness read?
A: -0.126 ± 0.23

Q: With KKRTSIEVSVKGVLETHFLKCPKPAAQEISSLADSLQLEKEVVRVWFCNRRTKEKR [Q52T] as the variant, how does the abundance fitness read?
A: -0.351 ± 0.22

Q: For KKRTSIEVSVKGVLETHFLKCPKPAAQEISSLADSLQLEKEVVRVWFCNRRWKEKR [Q52W], which abundance fitness is on record?
A: -0.685 ± 0.23

Q: For KKRTSIEVSVKGVLETHFLKCPKPAAQEISSLADSLQLEKEVVRVWFCNRRCKEKR [Q52C], which abundance fitness is on record?
A: -0.291 ± 0.21

Q: With KKRTSIEVSVKGVLETHFLKCPKPAAQEISSLADSLQLEKEVVRVWFCNRRGKEKR [Q52G] as the variant, how does the abundance fitness read?
A: -0.34 ± 0.13

Q: For KKRTSIEVSVKGVLETHFLKCPKPAAQEISSLADSLQLEKEVVRVWFCNRRLKEKR [Q52L], which abundance fitness is on record?
A: -0.055 ± 0.13

Q: Which abundance fitness does the source give for KKRTSIEVSVKGVLETHFLKCPKPAAQEISSLADSLQLEKEVVRVWFCNRREKEKR [Q52E] here?
A: 0.084 ± 0.17

Q: For KKRTSIEVSVKGVLETHFLKCPKPAAQEISSLADSLQLEKEVVRVWFCNRRYKEKR [Q52Y], which abundance fitness is on record?
A: -0.095 ± 0.34

Q: Which abundance fitness does the source give for KKRTSIEVSVKGVLETHFLKCPKPAAQEISSLADSLQLEKEVVRVWFCNRRFKEKR [Q52F] here?
A: -0.931 ± 0.38

Q: With KKRTSIEVSVKGVLETHFLKCPKPAAQEISSLADSLQLEKEVVRVWFCNRRAKEKR [Q52A] as the variant, how does the abundance fitness read?
A: 0.203 ± 0.13

Q: Which abundance fitness does the source give for KKRTSIEVSVKGVLETHFLKCPKPAAQEISSLADSLQLEKEVVRVWFCNRRQEEKR [K53E] here?
A: 0.194 ± 0.18

Q: For KKRTSIEVSVKGVLETHFLKCPKPAAQEISSLADSLQLEKEVVRVWFCNRRQDEKR [K53D], which abundance fitness is on record?
A: -0.232 ± 0.2

Q: With KKRTSIEVSVKGVLETHFLKCPKPAAQEISSLADSLQLEKEVVRVWFCNRRQFEKR [K53F] as the variant, how does the abundance fitness read?
A: -0.027 ± 0.29

Q: With KKRTSIEVSVKGVLETHFLKCPKPAAQEISSLADSLQLEKEVVRVWFCNRRQCEKR [K53C] as the variant, how does the abundance fitness read?
A: -0.428 ± 0.35

Q: Which abundance fitness does the source give for KKRTSIEVSVKGVLETHFLKCPKPAAQEISSLADSLQLEKEVVRVWFCNRRQAEKR [K53A] here?
A: -0.066 ± 0.13
